Laboratory results from US20240287172A1 (SCIRHOM, published 2024).

Target: T1, miR2-FL-WT-T7 (mouse, UniProt Q80WQ6 1-827)
T1 construct: on MEF-DKO cells
T1 sequence: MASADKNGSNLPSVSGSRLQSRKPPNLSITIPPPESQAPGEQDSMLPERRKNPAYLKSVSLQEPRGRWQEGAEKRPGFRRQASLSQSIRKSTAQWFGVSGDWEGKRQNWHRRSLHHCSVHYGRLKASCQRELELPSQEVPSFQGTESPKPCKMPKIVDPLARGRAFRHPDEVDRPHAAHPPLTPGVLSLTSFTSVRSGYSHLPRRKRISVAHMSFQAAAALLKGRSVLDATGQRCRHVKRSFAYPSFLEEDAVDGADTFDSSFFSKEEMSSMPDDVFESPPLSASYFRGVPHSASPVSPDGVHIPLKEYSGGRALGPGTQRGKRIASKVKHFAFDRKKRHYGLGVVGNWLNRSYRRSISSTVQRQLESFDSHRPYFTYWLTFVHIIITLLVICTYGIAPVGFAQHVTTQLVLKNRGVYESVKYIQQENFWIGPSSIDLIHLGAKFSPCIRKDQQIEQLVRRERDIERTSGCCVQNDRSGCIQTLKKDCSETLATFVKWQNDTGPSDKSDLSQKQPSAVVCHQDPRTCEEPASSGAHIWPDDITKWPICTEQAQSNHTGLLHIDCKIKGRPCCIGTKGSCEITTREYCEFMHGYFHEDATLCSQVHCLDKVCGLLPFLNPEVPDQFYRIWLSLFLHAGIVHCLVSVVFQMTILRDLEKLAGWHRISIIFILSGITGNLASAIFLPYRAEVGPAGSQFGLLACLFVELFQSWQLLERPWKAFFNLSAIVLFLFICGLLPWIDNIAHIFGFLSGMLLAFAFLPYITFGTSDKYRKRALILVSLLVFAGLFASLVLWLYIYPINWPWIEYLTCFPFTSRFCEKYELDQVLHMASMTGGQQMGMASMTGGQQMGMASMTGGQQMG
Assay: FACS, MEF-DKO-miR2-FL-WT-T7 cells
Protocol: In brief, immortalized MEF-DKO-EV control cells, MEF-DKO-hiR2-FL-WT-T7 cells and MEF-DKO-miR2-FL-WT-T7 cells were harvested with 10 mM EDTA in PBS, washed and resuspended in FACS buffer (PBS, 3% FBS, 0.05% sodium azide), and seeded in Nunc U-bottom 96-well plates (Thermo Fisher Scientific, USA) at approximately 3×10⁵ cells per well. To pellet cells and remove supernatants, the plates were centrifuged at 1,500 rpm and 4° C. for 3 minutes. For primary staining, cells were resuspended in 100 μl per well of either FACS buffer alone (controls), mouse monoclonal anti-T7 IgG (Merck Millipore, USA) at 3 μg/ml FACS buffer or the purified antibodies 3, 5, 16, 22, 34, 42, 43, 44, 48, and 50 of the invention also at 3 μg/ml FACS buffer and incubated on ice for 1 hour. Afterwards, plates were centrifuged at 1,500 rpm and 4° C. for 3 minutes and washed twice with 200 μl per well of FACS buffer. For secondary staining, cells were spun down and resuspended in 100 μl per well of PE-conjugated goat anti-mouse IgG F(ab′)2 detection fragment (Dianova, Germany) diluted 1:100 in FACS buffer. Protected from light, the cell suspensions were incubated on ice for 1 hour. […] Finally, cells were resuspended in 150 μl per well of FACS buffer and analyzed using a BD Accuri™ C6 Plus flow cytometer (Becton Dickinson, Germany).

B1: antibody 48 (antibody, V domains shown)
VH: QVQLQQSGTELVRPGTSVKVSCKASGYAFTNYLIEWVKQRPGQGLEWIGVINPGSGFTKYNEKFKGKATLTADKSSSTVYMHLSSLTSEDSAVYFCARGLYRAMDYWGQGTSVTVSS
VL: DIQMTQSPASQSASLGESVTITCLASQTIATWLAWYQQKPGKSPQLLIYGATTLADGVPSRFSGGGSGTKFSFKISSLQAEDFVSYYCQQLYSTPYTFGGGTKLEIK
notes: mouse IgG, kappa light chain; also called clone #48; purified antibody 48
binding result: no binding (tested: 3 µg/ml)
